Laboratory results: the supplement of paper PMC10126150
± gives the standard deviation of the averaged measurements.

Test system: ATP
Test: switch fluorescence ratio, 500 uM ATP over buffer (Cy3 cluster intensity, sum of 5 cycles each) (fold (ratio)); higher = stronger signal-on switching upon ATP binding; sequences stand for … in TCGTCGGCAGCGTCAGATGTGTATAAGAGACAGTTTTTTTTTTTTTTTTTTTTTTTTT…TC
Settings: aptamer strand: ATP DNA aptamer (quencher-CACCTGGGGGAGTATTGCGGAGGAAGG + anchor), 100 nM annealed; ATP concentration: 500 uM
Procedure, shortened: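 The fluorescence ratio divides summed target-cycle Cy3 intensity by summed buffer-cycle Cy3 intensity for each cluster and is averaged per switch-domain sequence. Cy3-labelled switching-strand clusters on a modified Illumina MiSeq flow-cell were annealed to 100 nM quencher-labelled ATP aptamer, then imaged in selection buffer and again after 15 min with 500 uM ATP at 22 °C. Five such cycles were run, with NaOH stripping and re-annealing between them, and clusters outside 100-1000 RFU were excluded.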
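Note: ATP exposure 15 min at 22 °C before imaging.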

Sequence	switch fluorescence ratio
GAGGGGAGTG	1.03 ± 0.064
TGAGAATTTG	0.976 ± 0.048
AGAGTAGAGG	1.01 ± 0.028
TATGCGAGTC	0.952 ± 0.036
TACCCGGTTT	0.999 ± 0.026
CGGGTTATGT	0.992 ± 0.044
AGATGCAGTA	1.01 ± 0.028
ATATGTGGCG	0.932 ± 0.011
ATGTGCGGGG	0.99 ± 0.019
GGGGACTACT	1 ± 0.025
TATACAACGA	1.03 ± 0.021
AGCCCGAGGG	0.989 ± 0.065
TTGGTAAAGG	0.999 ± 0.048
GCTCTTGTGC	1.008 ± 0.0034
AAGTAAGCAG	0.9636 ± 0.0011
AAGAGGGATT	0.983 ± 0.03
CTGTGTCTTT	0.995 ± 0.072
CAGGGTTGAG	0.997 ± 0.014
TATTCATTTG	1.027 ± 0.0068
GGGATATCTG	0.98847 ± 0.00072
CATGCCGCAT	1.133 ± 0.0092
TGGGGATCCG	1.016 ± 0.0095
CGGTAGTTTT	0.99 ± 0.014
TGGTAACAGG	1.01 ± 0.021
TATTAGTGCT	0.977 ± 0.033

Sequence	switch fluorescence ratio
GACTGAGGGG	1.02 ± 0.05
CCGGTAGGCC	0.978 ± 0.033
GATATGCTGG	0.987 ± 0.018
TGGTACGGAG	1 ± 0.011
AGATTCAGAA	0.947 ± 0.037
GGTATGAAGG	0.9664 ± 0.0095
TTCTGGGGGC	1.05 ± 0.064
TGTGGTATTT	0.972 ± 0.027
AAAAATTTCG	1.05 ± 0.063
GTGATAGGGA	1 ± 0.013
GCCAGTGCTG	1.017 ± 0.0069
GCGAATAGTT	1.005 ± 0.0067
CAGCCAAAT	1.043 ± 0.01
GGGGAATTCG	1.02 ± 0.043
GCTATGAG	0.995 ± 0.037
TGAGTTGGGG	0.967 ± 0.016
AACCGGTTAG	0.996 ± 0.011
AACTACTTTG	1 ± 0.03
GTAATATTTC	0.992 ± 0.027
GGGAGTGTCA	0.981 ± 0.0045
TGTGCTCGGA	1.04 ± 0.1
TAATTTAGTA	0.9929 ± 0.0073
GGGAGCCCCA	1.04 ± 0.039
CATTAGCCAG	0.99754 ± 0.00029
CATTTAACGT	0.991 ± 0.0041

Sequence	switch fluorescence ratio
CTCCACGGGA	1.144 ± 0.011
CTTAGTAGTA	0.992 ± 0.019
ATGAGGCTTT	1.02 ± 0.011
GCATCAGGCG	1.01 ± 0.02
TCAGGTTTGT	1.28 ± 0.34
CAATAGCACG	1.03 ± 0.027
TATACAATTG	1.01 ± 0.017
TTAGGTGAGT	1.21 ± 0.3
AATATTTTGG	1.013 ± 0.0037
CAACCGCCTT	1.46 ± 0.12
GATAAAAATA	0.998 ± 0.018
GAATCCAGTT	0.989 ± 0.02
TCCAGATTTT	1 ± 0.012
TATATGACTT	1 ± 0.012
GCGCAATCTG	1.98 ± 0.52
TAGGTTGAAT	0.984 ± 0.019
GTGTTCGCTT	0.984 ± 0.0099
ATACGGGAAT	1.05 ± 0.022
TTATGGACCT	1.331 ± 0.0094
GTAAGGAAAG	1.04 ± 0.062
TATTTATAGT	1.02 ± 0.013
GGTGAAAAAG	1.01 ± 0.011
ATCTAATTAG	0.963 ± 0.045
AATATCGGCA	0.982 ± 0.027
ACGTTGGGCA	0.99 ± 0.014

Sequence	switch fluorescence ratio
TTATAAAGAG	1.01 ± 0.029
TATTCGTTTT	0.989 ± 0.011
AGGCGGCTTC	1.03 ± 0.014
TAGTTGGGCT	0.961 ± 0.032
TAGTTTTCTG	0.982 ± 0.017
AGAAAAAGTT	1.017 ± 0.0048
TGTGAGGTGT	1.02 ± 0.062
TAAATTGCGG	0.966 ± 0.013
CGGGTGACGA	1.03 ± 0.04
TTTTAGAATG	1 ± 0.061
TCGTTCATGG	0.979 ± 0.039
CACGGAAGCG	1.05 ± 0.032
TAAAATACA	0.983 ± 0.019
TTCTATTCGA	1.008 ± 0.0058
CAAGGGGTAA	0.9524 ± 0.0052
GACGGGGTTA	1.02 ± 0.018
CGTCTTCCTG	1 ± 0.056
GGTATATGGG	0.994 ± 0.03
ACTGGGCATG	1.01 ± 0.032
GCTATCGGGA	1.01 ± 0.037
ACATTTGCAG	1.02 ± 0.033
TTGGTCGCTG	1.01 ± 0.011
GGTTTAGGGG	0.985 ± 0.032
TTGGGCAGGG	0.982 ± 0.036
TAGGTGTATG	1.01 ± 0.033

Sequence	switch fluorescence ratio
CCAGCGCACG	1.541 ± 0.014
ACTAATAGTC	1.02 ± 0.038
AAGTTTTGAC	1 ± 0.014
TTATACCAAT	1.013 ± 0.0022
GAGGGGACGA	0.998 ± 0.011
ATGCGGAGTG	0.987 ± 0.02
GCTTTGAATG	1.011 ± 0.005
GGTACACGGG	1.01 ± 0.054
CGGGGGGGTA	1 ± 0.027
TTGGGAAAAT	1.01 ± 0.05
AAGGATGTAT	0.969 ± 0.036
GGTATTCATT	0.995 ± 0.036
TGCCTGGGTG	2.74 ± 1.1
TGGGAATATG	1 ± 0.036
GAGTCGGGGT	1.01 ± 0.027
GGGGTTGCCG	0.992 ± 0.034
GGAGTTGGGT	0.984 ± 0.08
TGGGTATGGG	1.01 ± 0.037
TTTGAAGCTA	2.19 ± 1.9
GCGCATTAGC	1.3 ± 0.061
CACGTGGGCA	1.01 ± 0.048
ACGCTTTTGG	1.03 ± 0.023
GCTGGGACAC	1.04 ± 0.012
GGATGCTGTG	0.991 ± 0.013
TATCATGCCG	0.967 ± 0.037

Sequence	switch fluorescence ratio
GGGGGCTTGA	0.954 ± 0.022
TTGCAGGGGA	1.3 ± 0.38
CAGGTTGTGG	0.992 ± 0.024
AAGCAGCCGG	0.99 ± 0.046
CATATTTTTA	1.04 ± 0.05
TCTAAGGCCC	0.986 ± 0.011
ACATCACTAA	1.306 ± 0.0079
TAGAGGGGTT	0.985 ± 0.02
TGCTACACGT	1.01 ± 0.027
AATTCGACGT	0.9963 ± 0.0091
TTAGATCAGC	0.99 ± 0.03
GTGTTGTTGT	0.998 ± 0.016
GGGTCGGGGT	0.99 ± 0.029
AATTGACCGA	1.05 ± 0.013
GGGACGTGTT	1.02 ± 0.028
CACGTTGAAC	1.11 ± 0.034
AGCCATTATT	0.976 ± 0.02
CGGCAAATAG	2.52 ± 0.3
TTTTTGTCAT	0.9912 ± 0.0094
GCCATATGTG	1.02 ± 0.015
CCAGTAGTCC	1.14 ± 0.0031
TCACCGAGGC	1.15 ± 0.07
CGGGTAGTAC	1.19 ± 0.03
TCAATCTGTG	1.01 ± 0.066
AGGGAGGTTG	1.01 ± 0.013

Sequence	switch fluorescence ratio
TATAGGCGGT	1.12 ± 0.2
TTAAGATTCC	1.1 ± 0.028
ATCTATGTGG	0.982 ± 0.035
GGTTTGAGTA	1.02 ± 0.074
GGGTGATTCC	1.03 ± 0.014
TAAGCTTGGC	1.02 ± 0.026
TATAAGCACG	1.096 ± 0.0066
TAATTATGAG	0.9902 ± 0.0071
TTTTGACTTG	0.948 ± 0.0044
AGCTTCATTC	1.06 ± 0.057
GAAGATTATA	0.9865 ± 0.0044
AAGATATGAT	0.989 ± 0.032
GGCTGGGGGG	0.997 ± 0.02
ATGTATATAA	0.985 ± 0.018
TGCTCTACGG	1 ± 0.018
TCGAGTATCG	1.02 ± 0.044
TTAAATGAAT	0.991 ± 0.022
ATGTTGTGGG	1 ± 0.013
GCAATTTTGT	1.03 ± 0.015
TGGGAAGTCC	1.001 ± 0.0074
GTTAAAGATA	0.9918 ± 0.00016
ATCATCCGTT	1.04 ± 0.025
GGATTAAGTG	0.9616 ± 0.006
GTCGAAAGGA	0.9634 ± 0.0078
AATACGGGAG	0.995 ± 0.017

Sequence	switch fluorescence ratio
GCAATGGGAA	1.1 ± 0.019
TTATCGCGAC	1.67 ± 0.82
ACCTGGGTAC	1.03 ± 0.055
GAGGCAGGGT	1.033 ± 0.0064
AATTCGTTAC	1.63 ± 0.76
TTGGTGCGGG	0.98 ± 0.044
AGCTGACTGC	1.01 ± 0.025
AAAATGACGT	1.04 ± 0.049
GATTAATGGG	0.995 ± 0.023
CGTTTTATTG	0.99 ± 0.049
TCTTGGTCGT	0.9677 ± 0.0051
GCCATAGGAG	0.987 ± 0.031
AGGTTGGGGT	1.01 ± 0.036
GCTATATACA	1.04 ± 0.014
GGCAGATTTT	0.9986 ± 0.006
CTAGTCATGC	1.06 ± 0.0097
ATTGTGCTTG	1 ± 0.027
GCCTAATTGA	0.98434 ± 0.00034
TGTTGGGAGG	0.969 ± 0.017
GATTGGTGCG	0.976 ± 0.015
CATTCTGACC	1.08 ± 0.036
ATGATACTTC	0.9968 ± 0.0027
AATGGGCGAG	1.08 ± 0.18
TGTTTGGATG	0.973 ± 0.029
CGGGACAGGG	1 ± 0.013
